Measured values reported in publication PMC5385344, “Large Diversity of Functional Nanobodies from a Camelid Immune Library Revealed by an Alternative Analysis of Next-Generation Sequencing Data” (Frontiers in Immunology, 2017).

Key:
[1] = molecular target: T1, Recombinant extracellular domain of human RON (rhRON) (human, UniProt Q04912); assay: SPR; ProteOn; rhRON immobilised on GLC chip; 1/10 diluted crude periplasmic extracts injected 2 min at 45 µl/min; Langmuir model, off-rate only; conditions: one partner purified
T1 construct: recepteur d'origine nantais (RON) receptor tyrosine kinase, human, recombinant extracellular domain; also called recepteur d'origine nantais; source: bought: R&D Systems

[2] = molecular target: T2, RON endogenously expressed on T-47D human breast cancer cells (Homo sapiens (T-47D cell line), UniProt Q04912); assay: cell-based or functional assay
[3] = molecular target: T1, Recombinant extracellular domain of …; assay: ELISA; ligand competition: rhRON (1 µg/ml) immobilised directly; dilution series of purified nanobodies starting at 1 µM added together with 2 nM biotinylated MSP; MSP detected by extravidin peroxidase; conditions: both partners purified
[4] = molecular target: T2, RON endogenously expressed on T-47D …; assay: flow cytometry on cells; dilution series of purified nanobodies starting at 500 nM on T-47D cells endogenously expressing RON; anti-FLAG then anti-mouse APC; conditions: one partner purified
[5] = molecular target: T1, Recombinant extracellular domain of …; assay: ELISA; rhRON (1 µg/ml) immobilised directly on 384-well plates; crude periplasmic extracts of nanobodies; detection by anti-FLAG HRP; positive if OD450 ratio to a negative control nanobody ≥2; conditions: one partner purified
[6] = molecular target: T3, full-length human RON expressed on HEK293T cells (HEK293T-hRON) (Homo sapiens, UniProt Q04912); assay: flow cytometry on cells; 1/10 diluted crude periplasmic extracts on HEK293T-hRON and HEK293T cells; anti-FLAG then anti-mouse APC; positive if normalised ratio ≥2; conditions: partners not purified
T3 construct: also called cell-expressed RON; source: HEK293T, transiently transfected (pcDNA3.1), on cells
T3 sequence (Q04912 25-1400): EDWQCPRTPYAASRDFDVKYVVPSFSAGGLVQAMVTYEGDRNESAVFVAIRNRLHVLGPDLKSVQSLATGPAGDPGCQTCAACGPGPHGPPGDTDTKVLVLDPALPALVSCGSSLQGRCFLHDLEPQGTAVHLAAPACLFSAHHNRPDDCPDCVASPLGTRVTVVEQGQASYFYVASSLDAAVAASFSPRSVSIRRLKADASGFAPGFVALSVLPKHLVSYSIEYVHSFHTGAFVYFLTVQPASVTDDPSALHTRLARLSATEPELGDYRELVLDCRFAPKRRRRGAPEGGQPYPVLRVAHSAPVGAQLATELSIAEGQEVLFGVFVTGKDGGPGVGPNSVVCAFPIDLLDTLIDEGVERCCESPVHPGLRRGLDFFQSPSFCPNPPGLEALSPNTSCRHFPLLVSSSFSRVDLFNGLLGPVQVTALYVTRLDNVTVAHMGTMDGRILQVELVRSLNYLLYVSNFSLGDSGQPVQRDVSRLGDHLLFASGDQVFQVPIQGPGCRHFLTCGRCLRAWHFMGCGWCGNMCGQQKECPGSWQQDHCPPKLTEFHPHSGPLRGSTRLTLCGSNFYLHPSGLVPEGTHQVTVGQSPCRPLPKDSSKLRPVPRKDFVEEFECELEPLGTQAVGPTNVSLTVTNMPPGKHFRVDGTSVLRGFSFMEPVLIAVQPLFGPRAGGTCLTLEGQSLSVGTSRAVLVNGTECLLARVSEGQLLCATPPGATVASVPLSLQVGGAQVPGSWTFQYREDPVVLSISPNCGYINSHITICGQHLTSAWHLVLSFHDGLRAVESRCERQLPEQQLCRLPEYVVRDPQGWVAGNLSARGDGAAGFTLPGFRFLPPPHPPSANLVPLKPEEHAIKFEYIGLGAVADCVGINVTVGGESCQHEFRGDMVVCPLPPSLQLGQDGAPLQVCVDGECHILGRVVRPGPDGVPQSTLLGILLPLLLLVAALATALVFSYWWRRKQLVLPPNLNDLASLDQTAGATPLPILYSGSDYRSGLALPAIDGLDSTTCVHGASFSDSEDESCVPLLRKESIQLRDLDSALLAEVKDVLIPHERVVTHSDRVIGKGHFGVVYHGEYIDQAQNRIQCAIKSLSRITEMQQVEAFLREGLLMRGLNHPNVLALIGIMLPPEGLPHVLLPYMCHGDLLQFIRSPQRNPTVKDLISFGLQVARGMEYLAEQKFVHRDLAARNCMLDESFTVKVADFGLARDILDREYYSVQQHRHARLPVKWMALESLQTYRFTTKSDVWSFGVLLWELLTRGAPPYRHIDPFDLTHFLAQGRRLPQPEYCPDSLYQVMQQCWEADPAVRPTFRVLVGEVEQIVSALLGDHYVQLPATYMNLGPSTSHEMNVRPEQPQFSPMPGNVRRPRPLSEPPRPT

T1 sequence (Q04912 25-957): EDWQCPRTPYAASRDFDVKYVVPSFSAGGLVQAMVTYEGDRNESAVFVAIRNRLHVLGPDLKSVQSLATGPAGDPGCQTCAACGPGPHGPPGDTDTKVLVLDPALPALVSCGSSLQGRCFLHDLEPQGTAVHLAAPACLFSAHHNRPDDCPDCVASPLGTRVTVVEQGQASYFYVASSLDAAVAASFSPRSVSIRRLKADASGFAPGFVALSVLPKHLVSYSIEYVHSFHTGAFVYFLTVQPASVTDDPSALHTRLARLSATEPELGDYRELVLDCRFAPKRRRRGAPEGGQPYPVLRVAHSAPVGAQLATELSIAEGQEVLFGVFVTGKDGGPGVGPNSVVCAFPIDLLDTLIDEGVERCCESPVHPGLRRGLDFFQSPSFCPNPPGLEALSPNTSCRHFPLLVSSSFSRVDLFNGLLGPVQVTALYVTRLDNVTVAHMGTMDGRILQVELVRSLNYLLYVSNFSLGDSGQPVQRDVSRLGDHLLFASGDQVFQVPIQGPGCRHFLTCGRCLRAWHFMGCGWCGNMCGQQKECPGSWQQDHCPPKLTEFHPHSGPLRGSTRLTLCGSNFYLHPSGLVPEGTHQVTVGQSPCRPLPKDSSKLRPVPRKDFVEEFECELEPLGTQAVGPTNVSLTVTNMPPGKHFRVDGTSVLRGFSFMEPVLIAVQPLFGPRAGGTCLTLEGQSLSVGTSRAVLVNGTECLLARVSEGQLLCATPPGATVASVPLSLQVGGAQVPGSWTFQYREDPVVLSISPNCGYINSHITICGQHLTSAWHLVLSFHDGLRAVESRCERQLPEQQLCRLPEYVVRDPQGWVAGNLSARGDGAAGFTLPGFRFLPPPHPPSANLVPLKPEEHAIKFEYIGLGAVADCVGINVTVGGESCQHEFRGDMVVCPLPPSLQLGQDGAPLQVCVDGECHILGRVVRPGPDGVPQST
T2 sequence (Q04912 25-1400): as the sequence (Q04912 25-1400) above

Row | Binder | koff [1] [s⁻¹] | IC50 (M) inhibition of ERK phosphorylation induced by 1 nM MSP through RON on T-47D cells; purified nanobody, HTRF phospho-ERK [2] [M] | maximum inhibition (efficacy) of MSP-induced ERK phosphorylation in T-47D cells [2] [%] | IC50 [3] [nM] | maximum inhibition of MSP binding [3] [%] | EC50 [4] [nM] | binding result [5] | binding result [6]
1 | nanobody 8A09 (VHH, From a llama immunised with rhRON; found by conventional screening and by NGS; source: E. coli, crude periplasmic extract; E. coli, purified; not shown: FLAG3, C-terminal, kept) VHH: EVQLVKSGGGLVQAGGSLRLSCAASGRVAMGWFRQPPGKEREFVAAISASGATKYYADSVKGRFTIFRDNANTTVYLQMNSLKPEDTAVYYCAARLRWDSDYTSGGRYDYWGQGTQVTVSS | 0.00062 | 4.9e-09 | 100 | 16 | 98 | 0.093 |  | 
2 | nanobody 8D12 (VHH, From a llama immunised with rhRON; found by conventional screening and by NGS; source: E. coli, crude periplasmic extract; E. coli, purified; not shown: FLAG3, C-terminal, kept) VHH: EVQLVESGGGLVQAGGSLRLSCAASGRYAMGWFRQAPGKEREFVGVISKSGGSTYIADSVKGRFTISRHNAKSTAYLQMNNLRPEDTAVYYCAANGFLGTSGRRVDQYDYWGQGTQVTVSS | 0.00051 | 1.5e-08 | 100 | 11 | 98 | 0.061 |  | 
3 | nanobody 8C09 (VHH, From a llama immunised with rhRON; found by conventional screening and by NGS; source: E. coli, crude periplasmic extract; E. coli, purified; not shown: FLAG3, C-terminal, kept) VHH: EVQLVESGGGLVQAGGSLRLACAASGRISSTYRMGWFRQAPGKEREFVAASRWSGGGVLYTDSVKGRFTISTDNGKNMVYLQMNSLRPEDTAVYYCAGRNYGTTEYGYWGQGTQVTVSS | 0.0023 | 3.3e-08 | 100 | 47 | 90 | 170 |  | 
4 | nanobody 8G11 (VHH, From a llama immunised with rhRON; found by conventional screening and by NGS; source: E. coli, crude periplasmic extract; E. coli, purified; not shown: FLAG3, C-terminal, kept) VHH: EVQLVESGGGLVQAGGSLRLSCAASGGIFDNYAMGWIRQAPGKEREFVAGIRWSESSTYYAASVKGRFTISRDNAKNTVYLQMNSLKPEDTAVYSCAAWFWISSTWSYFSENEPNYRGPGTLVTVSS | 0.00097 | 8.2e-08 | 98 | 240 | 92 | 34 |  | 
5 | nanobody 5C06 (VHH, From a llama immunised with rhRON; found by conventional screening and by NGS; source: E. coli, crude periplasmic extract; E. coli, purified; not shown: FLAG3, C-terminal, kept) VHH: EVQLVESGGGLVQPGGSLRLSCAASGFTLDYYAIGWFRQAPGKEREGVSCISSSDGSTYYADSVKGRFTISRDNAKNTVYLQMNSLKPEDTAVYYCATDLKRRCRDYARPQRGNDYWGQGTQVTVSS | 0.0037 | 1.2e-07 | 98 | 22 | 98 | 200 |  | 
6 | nanobody 2C06 (VHH, From a llama immunised with rhRON; found by conventional screening and by NGS; source: E. coli, crude periplasmic extract; E. coli, purified; not shown: FLAG3, C-terminal, kept) VHH: EVQLVESGGGLVQTGGSLRLSCARSGPTFSDYAMAWFRQARGKEREFVASITWIGGSTYYADSVKGRFTISRDSAKDTMYLQMNTLKPEDTADYYCAIARLGTYYGSYIRAYFNRGRYEYWGQGTQVTVSS | 0.0069 | 3e-07 | 92 | 250 | 90 | > 1000 |  | 
7 | nanobody 2B09 (VHH, From a llama immunised with rhRON; found by conventional screening and by NGS; source: E. coli, crude periplasmic extract; E. coli, purified; not shown: FLAG3, C-terminal, kept) VHH: EVQLVESGGGLVQPGGSLRLSCAASGFSLDNYGIGWFRQAPGKEREGVSYISSTSLTRYYAASVKGRFTISRDNSKNTVYLQMNSLNPEDTAVYYCASTDRWPGIEWYRGEYDNWGQGTQVTVSS | 0.0018 | 9.6e-08 | 96 |  |  | 1.3 |  | 
8 | nanobody 8F09 (VHH, From a llama immunised with rhRON; found by conventional screening and by NGS; source: E. coli, crude periplasmic extract; E. coli, purified; not shown: FLAG3, C-terminal, kept) VHH: EVQLVESGGGLVQAGGSLRLSCEASGRYVMGWFRQAPGKEREFVAVISRSGGSTNYADSVKGRFSVSRDSAKNTVYLQMNDLKPEDTAVYYCAASNRYGTNVLVTTALYDYWGQGTQVTVSS | 0.00064 | 5.2e-09 | 99 | 12 | 98 | 0.2 |  | 
9 | nanobody 11F05 (VHH, From a llama immunised with rhRON; found by conventional screening and by NGS; source: E. coli, crude periplasmic extract; E. coli, purified; not shown: FLAG3, C-terminal, kept) VHH: EVQLVESGGGSVQAGGSLRLSCAASGRYRMGWFRQAPGKEREFVAVISASGGSTYYADSVKGRFTIARDNAKTMVYLQMNSLKPEDTAVYYCAAKVNYYGDYDLAQNYDYWGQGTQVTVSS | 0.00046 | 6e-09 | 100 | 9.7 | 98 | 0.053 |  | 
10 | nanobody 8A12 (VHH, From a llama immunised with rhRON; found by conventional screening and by NGS; source: E. coli, crude periplasmic extract; E. coli, purified; not shown: FLAG3, C-terminal, kept) VHH: EVQLVESGGGLVQAGGSLRVSCAASGLTFSRYNMGWFRQAPGKERDFVAAISSSDGSILYENSVKGRFTISRDNAENTVYLQMNSLEPEDTGVYYCAGSIVMSTLARKYDYWGQGTLVTVSS | 0.0028 | 1.3e-08 | 100 | 7 | 96 | 0.12 |  | 
11 | nanobody NGS00009 (VHH, majority-rule consensus of an NGS cluster; One of the 28 randomly selected NGS clusters; source: E. coli, crude periplasmic extract (synthetic DNA); not shown: FLAG3, C-terminal, kept) VHH: EVQLVESGGGLVQAGDSLRLSCAASGRTFSTYALGWFRQAPGKEREFVAVISGRGGTTYYAGSVKGRLTISRDNAKNTVYLQMNSLKPEDTAVYYCAAGSDFGAVVDNRPDYWGQGTLVTVSS |  |  |  |  |  |  | binds | 
12 | nanobody NGS00003 (VHH, majority-rule consensus of an NGS cluster; One of the 28 randomly selected NGS clusters; source: E. coli, crude periplasmic extract (synthetic DNA); not shown: FLAG3, C-terminal, kept) VHH: EVQLVESGGGLVQPGGSLRLSCAASGFAFSRYWMYWVRQAPGKGLEWVSAISSSGSSTDYVDSVKGRFTVSRDNAKNTLYLQMNGLKSEDTAIYYCAKDTRQFIRSNYDNGGQGTLVTVSS |  |  |  |  |  |  | no binding | no binding
13 | nanobody NGS00020 (VHH, majority-rule consensus of an NGS cluster; One of the 28 randomly selected NGS clusters; source: E. coli, crude periplasmic extract (synthetic DNA); not shown: FLAG3, C-terminal, kept) VHH: EVQLVESGGALVQAGDSLRVSCVASGRTFSRYAMGWFRQAPGKQREFVAAISWDGDSTSYANSLKGRFTISRDNAKNTGYLYMNSLIPEDTAVYYCAADRGRTTAWTYWGEGTLVTVSS |  |  |  |  |  |  | no binding | no binding
14 | nanobody NGS00027 (VHH, majority-rule consensus of an NGS cluster; One of the 28 randomly selected NGS clusters; source: E. coli, crude periplasmic extract (synthetic DNA); not shown: FLAG3, C-terminal, kept) VHH: EVQLVESGGGLVQVGASLRLSCRASGGTFDDYAMGWFRQRPGEEREFVAVISWNGAMTYYLNHIKGRFTISRDNAKNTAYLQMNNLEPGDTAVYYCAAERTLGWGVNPEAYASWGQGTLVTVSS |  |  |  |  |  |  | no binding | no binding
